Patent US20210389324

T1: CFP-SFVp12-YFP 19:6
T1 chain: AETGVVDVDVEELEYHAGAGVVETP

T2: CFP-SFVp12-YFP 11:6
T2 chain: DVEELEYHAGAGVVETP

T3: CFP-SFRP1-YFP
T3 chain: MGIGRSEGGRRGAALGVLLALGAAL

T4: CFP-SFRP4-YFP
T4 chain: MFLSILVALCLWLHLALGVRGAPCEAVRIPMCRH

T5: CFP-SFRP2-YFP
T5 chain: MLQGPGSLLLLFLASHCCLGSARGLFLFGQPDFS

T6: CFP-NT5M-YFP
T6 chain: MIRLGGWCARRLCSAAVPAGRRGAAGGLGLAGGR

T7: CFP-FOXG1-YFP
T7 chain: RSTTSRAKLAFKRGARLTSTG

B1: Recombinant CHIKV nsP2 protease (protein)
chain: SNAFQNKANVCWAKSLVPILETAGIKLNDRQWSQIIQAFKEDKAYSPEVALNEICTRMYGVDLDSGLFSKPLVSVYYADNHWDNRPGGKMFGFNPEAASILERKYPFTKGKWNINKQICVTTRRIEDFNPTTNIIPVNRRLPHSLVAEHRPVKGERMEWLVNKINGHHVLLVSGYNLALPTKRVTWVAPLGVRGADYTYNLELGLPATLGRYDLVVINIHTPFRIHHYQQCVDHAMKLQMLGGDSLRLLKPGGSLLIRAYGYADRTSERVICVLGRKFRSSRALKPPCVTSNTEMFFLFSNFDNGRRNFTTHVMNNQLNAAFVG
B2: Recombinant ZIKV ns2B/ns3 Protease (protein)
chain: MGSSHHHHHHSSGLVPRGSHMVDMYIERAGDITWEKDAEVTGNSPRLDVALDESGDFSLVEDDGPPMAGGGGSGGGGSGALWDVPAPKEVKKGETTDGVYRVMTRGLLGSTQVGVGVMQEGVFHTMWHVTKGSALRSGEGRLDPYWGDVKQDLVSYSGPWKLDAAWDGHSEVQLLAVPPGERARNIQTLPGIFKTKDGDIGAVALDYPAGTSGSPILDKSGRVIGLYGNGVVIKNGSYVSAITQGRR

Key:
CFP-SFVp12-YFP 19:6 = biological target: T1, CFP-SFVp12-YFP 19:6
CFP-SFVp12-YFP 11:6 = biological target: T2, CFP-SFVp12-YFP 11:6
CFP-SFRP1-YFP = biological target: T3, CFP-SFRP1-YFP
CFP-SFRP4-YFP = biological target: T4, CFP-SFRP4-YFP
CFP-SFRP2-YFP = biological target: T5, CFP-SFRP2-YFP
CFP-NT5M-YFP = biological target: T6, CFP-NT5M-YFP
CFP-FOXG1-YFP = biological target: T7, CFP-FOXG1-YFP

Protein | cleavage of CFP-YFP substrate (CFP-SFVp12-YFP 19:6) | cleavage of CFP-YFP substrate (CFP-SFVp12-YFP 11:6) | cleavage of CFP-YFP substrate (CFP-SFRP1-YFP) | cleavage of CFP-YFP substrate (CFP-SFRP4-YFP) | cleavage of CFP-YFP substrate (CFP-SFRP2-YFP) | cleavage of CFP-YFP substrate (CFP-NT5M-YFP) | cleavage of CFP-YFP substrate (CFP-FOXG1-YFP)
B1 | CHIKV and VEEV nsP2 cysteine protease | CHIKV and VEEV nsP2 cysteine protease |  |  |  |  | 
B2 |  |  | ZIKV ns2B-ns3 protease | Control, not cleaved by ZIKV ns2B-ns3 protease | Control, not cleaved by ZIKV ns2B-ns3 protease | ZIKV ns2B-ns3 protease | ZIKV ns2B-ns3 protease
